The results in this text go back to publication PMC8484813, “Structure and substrate specificity determinants of NfnB, a dinitroaniline herbicide–catabolizing nitroreductase from Sphingopyxis sp. strain HMH” (The Journal of Biological Chemistry, 2021).

Where a chain is given by its changes, count along the chain named. Numbers in names are those of the source.

Broadly, the stoichiometry N is the number of molecules, sites or subunits per partner or assembly. Usually kcat stands for the maximal rate divided by the concentration of active sites.

One data set deals with T1, NfnB (Sphingopyxis granuli, UniProt A0A411G9W7).
T1 construct: full-length gene in modified pET28b, N-terminal His6 tag with TEV site, E. coli BL21(DE3); tag kept for activity assays, tag-free for crystals
T1 sequence (A0A411G9W7 1-233): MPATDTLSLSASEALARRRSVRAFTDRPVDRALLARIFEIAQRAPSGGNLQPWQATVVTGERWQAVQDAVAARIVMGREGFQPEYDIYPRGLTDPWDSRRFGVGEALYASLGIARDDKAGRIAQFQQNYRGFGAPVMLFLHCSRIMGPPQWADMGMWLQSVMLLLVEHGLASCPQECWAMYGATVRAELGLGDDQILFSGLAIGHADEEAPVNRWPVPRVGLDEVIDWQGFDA
The data set is described as follows: X-ray crystal structure, […] Å. It counts as binding. As to conditions: tag-free protein; FMN in pocket at dimer interface.

Data set [1] has as its target NfnB from Sphingopyxis sp. strain HMH (wildtype) (Sphingopyxis sp. strain HMH). The experiment in a line: SEC; Superdex 200 column, buffer A (50 mM Tris pH 8.0, 100 mM NaCl); elution peak compared with the monomeric molecular weight. (SEC sorts molecules by how far they enter the pores of the column.)
Substrate in data set [2]: CCC(CC)Nc1c([N+](=O)[O-])cc(C)c(C)c1[N+](=O)[O-]
The data set is described as follows: purified protein. It counts as biochemical, Sphingopyxis granuli. As to conditions: 50 mM Tris pH 7.5, 30 °C.

Substrate in data set [3]: CCC(C)Nc1c([N+](=O)[O-])cc(C(C)(C)C)cc1[N+](=O)[O-]
The experiment in a line: purified protein. It is filed as biochemical, Sphingopyxis granuli. The note with it: 50 mM Tris pH 7.5, 30 °C.

Substrate in data set [4]: CCCN(CCC)c1c([N+](=O)[O-])cc(C(C)C)cc1[N+](=O)[O-]
The experiment in a line: purified protein. The note with it: 50 mM Tris pH 7.5, 30 °C.

Substrate in data set [5]: NC(=O)C1=CN([C@@H]2O[C@H](COP(=O)(O)OP(=O)(O)OC[C@H]3O[C@@H](n4cnc5c(N)ncnc54)[C@H](OP(=O)(O)O)[C@@H]3O)[C@@H](O)[C@H]2O)C=CC1
The experiment in a line: purified protein. As to conditions: 12.5 μM butralin, 50 mM Tris pH 7.5, 30 °C, electron donor. It is filed as biochemical, Sphingopyxis granuli.

Substrate in data set [6]: NC(=O)C1=CN([C@@H]2O[C@H](COP(=O)(O)OP(=O)(O)OC[C@H]3O[C@@H](n4cnc5c(N)ncnc54)[C@H](OP(=O)(O)O)[C@@H]3O)[C@@H](O)[C@H]2O)C=CC1
The data set is described as follows: purified protein. The note with it: pH 7.5; 30.0 °C.

Substrate in data set [7]: CCC(CC)Nc1c([N+](=O)[O-])cc(C)c(C)c1[N+](=O)[O-]
The data set is described as follows: purified protein. As to conditions: pH 7.5; 30.0 °C.

Substrate in data set [8]: CCC(C)Nc1c([N+](=O)[O-])cc(C(C)(C)C)cc1[N+](=O)[O-]
The data set is described as follows: purified protein. The note with it: pH 7.5; 30.0 °C.

As to `Cc1cc2nc3c(=O)[nH]c(=O)nc-3n(C[C@H](O)[C@H](O)[C@H](O)COP(=O)(O)O)c2cc1C` [FMN], on NfnB, the “X-ray crystal structure, 2.1 Å” value is recorded as “We determined the crystal structure of NfnB in the presence of coenzyme FMN”.
The molecule “NfnB from Sphingopyxis sp. strain HMH (wildtype) (enzyme)” returned a stoichiometry N in data set [1] of 2.

B1: NfnB (Sphingopyxis granuli; Y88A) (protein)
chain: T1 sequence (A0A411G9W7 1-233) with Y88A
notes: full-length gene in modified pET28b, N-terminal His6 tag with TEV site, E. coli BL21(DE3); tag kept for activity assays, tag-free for crystals
On to B1, for which the Km is given as 2.9 (0.18) μM in the data set “purified protein [2]” (200 μM NADPH), 0.59 (0.077) μM in “purified protein [3]” (200 μM NADPH) and 0.83 (0.16) μM in “purified protein [4]” (200 μM NADPH). The kcat was 2.5 s⁻¹ in the data set “purified protein [2]” (200 μM NADPH), 2.1 s⁻¹ in the data set “purified protein [3]” (200 μM NADPH) and 1.2 s⁻¹ in the data set “purified protein [4]” (200 μM NADPH).

B2: NfnB (Sphingopyxis granuli; R100M) (protein)
chain: T1 sequence (A0A411G9W7 1-233) with R100M
notes: as for B1
Take B2: in the data set “purified protein [5]”, the Km is on record as 95 (20) μM and the kcat worked out at 4.9 s⁻¹.

B3: NfnB (Sphingopyxis granuli; R100A) (protein)
chain: T1 sequence (A0A411G9W7 1-233) with R100A
notes: as for B1
B3: in the data set “purified protein [5]”, the Km is reported as 58 (4.5) μM and the kcat was 3.9 s⁻¹.

B4: NfnB (Sphingopyxis granuli) (protein)
chain: T1 sequence (A0A411G9W7 1-233)
Regarding B4, the Km in “purified protein [6]” is 7.3 (1.4) μM; in the data set “purified protein [7]”, 6.8 (1.7) μM; in the data set “purified protein [8]” it was 2.4 (0.50) μM.

B5: NfnB (Sphingopyxis granuli; Y88F) (protein)
chain: T1 sequence (A0A411G9W7 1-233) with Y88F
notes: as for B1
Consider B5, for which the Km in the data set “purified protein [2]” (100 μM NADPH) is 1.6 (0.28) μM; in “purified protein [3]” (100 μM NADPH), 0.81 (0.12) μM; in the data set “purified protein [4]” (100 μM NADPH), 2.7 (0.17) μM. The kcat amounted to 3.6 s⁻¹ in “purified protein [2]” (100 μM NADPH), 4 s⁻¹ in “purified protein [3]” (100 μM NADPH) and 0.66 s⁻¹ in “purified protein [4]” (100 μM NADPH).
